Results from publication PMC11658694, “Acetylation of the yeast Hsp40 chaperone protein Ydj1 fine-tunes proteostasis and translational fidelity” (PLOS Genetics, 2024).
Where a chain is given by its changes, count along the chain named. Each block holds one binder with its values, some of them ahead of it.

Legend:
Ssa1 (purified) [1] = biological target: T1, Ssa1 (purified) (S. cerevisiae (budding yeast), UniProt P10591 1-642); test: cell-based or functional assay
Ssa1 (purified) [2] = biological target: T1, Ssa1 (purified); test: BLI; biotinylated Ydj1 wild-type or mutant (5 μg/ml, equivalent loading) on streptavidin biosensors, Ssa1 (1 μM) in solution; Octet R4, 23°C; 25 mM Hepes pH 7.5, 50 mM KCl, 2 mM DTT, 5 mM MgCl2, 0.5 mM ATP, 0.02% Tween-20; non-specific binding subtracted; conditions: both partners purified

T1 sequence (P10591 whole entry): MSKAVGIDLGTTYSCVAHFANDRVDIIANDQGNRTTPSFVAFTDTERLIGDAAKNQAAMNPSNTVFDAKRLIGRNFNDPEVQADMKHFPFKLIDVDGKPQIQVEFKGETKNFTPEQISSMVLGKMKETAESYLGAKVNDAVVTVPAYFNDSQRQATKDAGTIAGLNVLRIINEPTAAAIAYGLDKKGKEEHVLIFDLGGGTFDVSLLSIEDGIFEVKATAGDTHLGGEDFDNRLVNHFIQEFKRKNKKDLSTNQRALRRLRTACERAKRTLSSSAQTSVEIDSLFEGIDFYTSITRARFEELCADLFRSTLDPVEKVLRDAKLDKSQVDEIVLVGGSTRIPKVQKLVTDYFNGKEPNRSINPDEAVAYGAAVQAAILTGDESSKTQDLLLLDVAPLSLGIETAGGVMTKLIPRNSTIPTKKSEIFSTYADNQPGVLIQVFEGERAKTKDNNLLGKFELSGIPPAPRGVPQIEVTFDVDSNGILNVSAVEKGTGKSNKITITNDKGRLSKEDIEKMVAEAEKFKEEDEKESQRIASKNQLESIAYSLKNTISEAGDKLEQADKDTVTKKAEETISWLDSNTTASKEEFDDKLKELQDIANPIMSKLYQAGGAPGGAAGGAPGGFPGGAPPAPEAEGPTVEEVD

B2: His-tagged Ydj1 K23Q (natural protein, S. cerevisiae (budding yeast), UniProt P25491 1-409, looked up)
chain: MVKETKFYDILGVPVTATDVEIQKAYRKCALKYHPDKNPSEEAAEKFKEASAAYEILSDPEKRDIYDQFGEDGLSGAGGAGGFPGGGFGFGDDIFSQFFGAGGAQRPRGPQRGKDIKHEISASLEELYKGRTAKLALNKQILCKECEGRGGKKGAVKKCTSCNGQGIKFVTRQMGPMIQRFQTECDVCHGTGDIIDPKDRCKSCNGKKVENERKILEVHVEPGMKDGQRIVFKGEADQAPDVIPGDVVFIVSERPHKSFKRDGDDLVYEAEIDLLTAIAGGEFALEHVSGDWLKVGIVPGEVIAPGMRKVIEGKGMPIPKYGGYGNLIIKFTIKFPENHFTSEENLKKLEEILPPRIVPAIPKKATVDECVLADFDPAKYNRTRASRGGANYDSDEEEQGGEGVQCASQ
modifications: biotin (labelled with a 1.5-fold excess of NHS-PEG4-Biotin, for BLI)
notes: Ydj1, yeast Hsp40; Tag end: see m28; source: E. coli Rosetta (DE3), purified (Ni-sepharose, Superdex 200); not shown: His6, N-terminal, kept
- binding result (Ssa1 (purified) [2]): binds

B3: His-tagged Ydj1 wild-type (natural protein, S. cerevisiae (budding yeast), UniProt P25491 1-409, looked up)
chain: B2 chain with Q23K
modifications: biotin (labelled with a 1.5-fold excess of NHS-PEG4-Biotin, for BLI)
notes: Ydj1, yeast Hsp40; YDJ1 gene amplified from yeast genomic DNA, in pRSETA; Methods: 6xHIS-TEV-Ydj1 fusion; A TEV site lies between tag and Ydj1; A fragment lacking the J-domain co-purifies; also called HIS-Ydj1; Ydj1-biotin; source: E. coli Rosetta (DE3), purified (Ni-sepharose, Superdex 200); not shown: His6, N-terminal, kept
- binding result (Ssa1 (purified) [2]): binds

B5: His-tagged Ydj1 K23R (natural protein, S. cerevisiae (budding yeast), UniProt P25491 1-409, looked up)
chain: B2 chain with Q23R
modifications: biotin (labelled with a 1.5-fold excess of NHS-PEG4-Biotin, for BLI)
notes: as for B2
- binding result (Ssa1 (purified) [2]): binds

Continued, values first:

- reactivation of chemically denatured luciferase (3 μM Ssa1, 0.3 μM Ydj1), against wild-type (Ssa1 (purified) [1]): ~2 fold
B1: His-tagged Ydj1 6KR (natural protein, S. cerevisiae (budding yeast), UniProt P25491 1-409, looked up)
chain: B2 chain with Q23R, K24R, K32R, K37R, K46R, K48R
modifications: biotin (labelled with a 1.5-fold excess of NHS-PEG4-Biotin, for BLI)

- reactivation of chemically denatured luciferase (3 μM Ssa1, 0.3 μM Ydj1), against wild-type (Ssa1 (purified) [1]): ~2 fold
B4: His-tagged Ydj1 K37R (natural protein, S. cerevisiae (budding yeast), UniProt P25491 1-409, looked up)
chain: B2 chain with Q23K, K37R
modifications: biotin (labelled with a 1.5-fold excess of NHS-PEG4-Biotin, for BLI)
